Reference: article PMC6755812

How the values were obtained:
[1] = target: Escherichia coli peptide methionine sulfoxide reductase A (E. coli) (UniProt P0A744)
[2] = target: Escherichia coli thioredoxin reductase (E. coli) (UniProt P0A9P4)
[3] = target: bovine pancreas insulin (bovine)
bovine pancreas insulin (bovine), sequence (P01317 25-54, chain 1 of 2): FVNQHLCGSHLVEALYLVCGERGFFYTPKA
bovine pancreas insulin (bovine), sequence (P01317 85-105, chain 2 of 2): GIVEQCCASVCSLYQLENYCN

Escherichia coli peptide methionine sulfoxide reductase A (E. coli), sequence (P0A744 2-212): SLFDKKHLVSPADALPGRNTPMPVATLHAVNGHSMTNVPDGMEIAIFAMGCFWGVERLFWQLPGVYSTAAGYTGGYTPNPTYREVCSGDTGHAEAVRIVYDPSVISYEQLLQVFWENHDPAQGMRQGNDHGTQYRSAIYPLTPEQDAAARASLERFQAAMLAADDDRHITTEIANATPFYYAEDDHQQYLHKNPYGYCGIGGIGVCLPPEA
Escherichia coli thioredoxin reductase (E. coli), sequence (P0A9P4 2-321): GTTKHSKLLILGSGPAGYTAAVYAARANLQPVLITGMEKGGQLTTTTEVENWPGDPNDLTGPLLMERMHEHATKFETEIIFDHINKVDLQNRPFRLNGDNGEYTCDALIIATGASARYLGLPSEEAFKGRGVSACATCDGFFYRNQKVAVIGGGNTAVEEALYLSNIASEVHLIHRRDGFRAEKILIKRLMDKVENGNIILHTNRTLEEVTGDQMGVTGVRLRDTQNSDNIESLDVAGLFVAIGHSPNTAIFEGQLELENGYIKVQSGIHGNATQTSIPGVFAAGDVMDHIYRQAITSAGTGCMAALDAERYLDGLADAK

k1: rate constant of Trx–MsrA mixed disulfide formation (stopped-flow fluorescence, 1 μM oxidized MsrA, 5-100 μM reduced Trx, pH 7.0, 25 °C) [1]: 221000 M^−1 s^−1
k2: rate constant of mixed disulfide dissociation to reduced MsrA and oxidized Trx (stopped-flow fluorescence, pH 7.0, 25 °C) [1]: 3.63 s^−1
Catalytic activity of S-MetO reduction by NADPH (Vi/[Trx]) in the reconstituted NADPH/TrxR/Trx/MsrA chain (4.5 μM TrxR, 4.5 μM MsrA, 0.1-1.0 μM Trx, pH 7.0, 25 °C) [2]: 0.22 min^−1
Specific insulin reductase activity (0.13 mM insulin, 1 mM DTT, 0.5-2.0 μM Trx, onset of aggregation at OD650, pH 7.0, 25 °C) [3]: 0.155 min^−1 μM^−1
B1: human thioredoxin (enzyme)
chain: MVKQIESKTAFQEALDAAGDKLVVVDFSATWCGPCKMIKPFFHSLSEKYSNVIFLEVDVDDCQDVASECEVKCMPTFQFFKKGQKVGEFSGANKEKLEATINELV
